From PMC11843475, “Taming interleukin‐12: Engineering of bispecific antibody‐based IL‐12 mimetics with biased agonism capacities” (Protein Science : A Publication of the Protein Society, 2025) come the findings set out here.

For the assay, the target named is T1, recombinant human (rh) His-tagged IL-12Rβ1 ECD (human, UniProt P42701 24-545).
T1 construct: Interleukin-12 receptor subunit beta-1, human, extracellular domain; Loaded on anti-Penta His (HIS1K) biosensors through its His tag; also called (rh) IL-12Rβ1; IL-12 receptor subunit β1; source: bought: Acro Biosystems (ILB-H52H9)
Kind of assay: BLI; epitope binning / competition: 5 μg/mL His-tagged (rh) IL-12Rβ1 ECD loaded on HIS1K biosensors in PBS; first association 200 nM for 300 s, then second association 200 nM for 300 s with a 100 nM spike of the first molecule; kinetics buffer (PBS + 0.1% Tween-20, 1% BSA); 25°C, 1000 rpm; competition with rh IL-12 analysed in the same combinatorial manner. The note with it: both partners purified. On the technique in general: In BLI a coated tip is dipped into the sample, and binding shifts an interference pattern.

B1: recombinant human (rh) IL-12 (complex)
chain 1: RNLPVATPDPGMFPCLHHSQNLLRAVSNMLQKARQTLEFYPCTSEEIDHEDITKDKTSTVEACLPLELTKNESCLNSRETSFITNGSCLASRKTSFMMALCLSSIYEDLKMYQVEFKTMNAKLLMDPKRQIFLDQNMLAVIDELMQALNFNSETVPQKSSLEEPDFYKTKIKLCILLHAFRIRAVTIDRVMSYLNAS
chain 2: IWELKKDVYVVELDWYPDAPGEMVVLTCDTPEEDGITWTLDQSSEVLGSGKTLTIQVKEFGDAGQYTCHKGGEVLSHSLLLLHKKEDGIWSTDILKDQKEPKNKTFLRCEAKNYSGRFTCWWLTTISTDLTFSVKSSRGSSDPQGVTCGAATLSAERVRGDNKEYEYSVECQEDSACPAAEESLPIEVMVDAVHKLKYENYTSSFFIRDIIKPDPPKNLQLKPLKNSRQVEVSWEYPDTWSTPHSYFSLTFCVQVQGKSKREKKDRVFTDKTSATVICRKNASISVRAQDRYYSSSWSEWASVPCS
notes: Interleukin-12 p35 alpha-subunit (IL12A), human; Interleukin-12 p40 beta-subunit (IL12B), human; Heterodimeric cytokine of p35 and p40; also called wild-type IL-12; interleukin-12; source: bought: Acro Biosystems
With B1, the binding result is listed as “binds”.
